Experimental data as given in article PMC4719306 (Genes & Development, 2016).

B1: Flag-tagged full-length PA1 (recombinant) (natural protein, UniProt Q99L02 1-253, looked up)
chain: MSLALGHGTIAGSTAAPLSEEGEVTSGLQALAVEDTGGPSVSASKAEEEGKGSQEEAGREGSRPEEALEAPSAASDERAEGEAEDWCVPCSDEEVELPANGQSWMPPPSEIQRLYELLATQGTLELQAEILPRRPPTPEAQSEEERSDEEPEAKEEEEEKPHMPTEFDFDDEPMTPKDSLIDRRRTPGSSARSQKREARLDKVLSDMKRHKKLEEQILRTGRDLFSLDSEGPSPTSPPLRSSGNSLFPRQRKY
B2: Strep-tagged N-terminal BRCT1–2 domain fragment of PTIP (recombinant) (domain or fragment)
chain: VPEELFREVKYYAVGDIDPQVIQLLKAGKAKEVSYNALASHIISEDGDNPEVGEAREVFDLPVVKPSWVTLSVQCGALLPVNGFSPESCQIFFGLTACLSQVSSEDRSALWALVTFHGGSCQLNLNKKCTHLIVPEPKGEKYERAVKRTSIKIVTPDWVLDCVSEKRRKDEAFYHP

Legend:
[1] = target: B2; assay: ITC
[2] = target: B1; assay: ITC

Binder | dH [1] | stoichiometry N [1] | Kd [2]
B1 | -26 kcal/mol | 1 | –
B2 | – | – | 7.1 nM
